Drawing on paper PMC7472727, “Novel Escherichia coli RNA Polymerase Binding Protein Encoded by Bacteriophage T5”, this text covers binding signal for one molecule.

The data set addresses RNAP holoenzyme with [211Cys-TMR] sigma70 (RNAP beacon);gpT5.026 (Escherichia coli;Escherichia phage T5, UniProt P0A7Z4;P0A8V2;P0A8T7;P0A800;P00579;Q6QGR1 1-329;1-1342;1-1407;2-91;1-613;1-153, S211C|). Briefly: fluorescence RNAP beacon titration; 100 nM gpT5.026 preincubated 15 min; 40 mM Tris-HCl pH 8.0, 100 mM NaCl, 5% glycerol, 1 mM DTT, 10 mM MgCl2, 0.02% Tween 20, 25 C; 1 nM labeled RNAP holoenzyme. Conditions: protein: recombinant;recombinant; chain copies: 2;1;1;1;1;1.

B1: [-38/-12] upstream double-stranded probe (dsDNA)
DNA 1: TATTTGACATCAGGAAAATTTTTTGGT
DNA 2: ACCAAAAAATTTTCCTGATGTCAAATA
For the molecule B1, the binding signal is ~3 fold higher affinity than without gpT5.026.
